# Experimental data reported in patent US20260167721A1 (ABLEXIS, published 2026).
# Legend:
# [1] = molecular target: T1, recombinant human CD3 epsilon/gamma heterodimer (human, UniProt P07766 23-126; P09693 23-116); assay: Octet BLI, mAb on FAB2G sensor, hCD3 E/G 200-50 nM; R^2 0.84
# T1 construct: Recombinant protein in solution (200-50 nM) in the Octet assay; also called hCD3 E/G
# Description: (§1) Samples were evaluated by flow cytometry analysis against Jurkat and human Pan-T cells (FIG. 1B) as well as by Octet against recombinant human CD3 proteins to evaluate apparent affinities and binding off-rates (Table 6, infra).
# [2] = molecular target: T2, recombinant human CD3 epsilon/delta heterodimer (human, UniProt P07766 23-126; P04234 22-105); assay: Octet BLI, mAb on FAB2G sensor, hCD3 E/D 200-50 nM; R^2 0.99
# T2 construct: Recombinant protein in solution (200-50 nM) in the Octet assay; also called hCD3 E/D; human CD3E/D
# T2 sequence (P07766 23-126, stated change not applied, chain 1 of 2): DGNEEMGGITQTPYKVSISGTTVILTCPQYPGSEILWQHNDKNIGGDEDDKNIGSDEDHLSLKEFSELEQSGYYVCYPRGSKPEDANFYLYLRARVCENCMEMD
# T2 sequence (P04234 22-105, stated change not applied, chain 2 of 2): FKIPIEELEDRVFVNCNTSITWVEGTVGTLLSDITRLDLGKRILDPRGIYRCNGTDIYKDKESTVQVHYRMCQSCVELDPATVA
# [3] = molecular target: T2, recombinant human CD3 epsilon/delta …; assay: Octet BLI, mAb on FAB2G sensor, hCD3 E/D 200-50 nM; R^2 0.97
# Description: as §1
# [4] = molecular target: T2, recombinant human CD3 epsilon/delta …; assay: Octet BLI, mAb on FAB2G sensor, hCD3 E/D 200-50 nM; R^2 1.00
# CD33 on KILR-HL60 cells [5] = molecular target: T3, CD33 on KILR-HL60 cells (UniProt P20138 18-364, limits assumed); assay: flow cytometry on KILR-HL60 (CD33 expressing) cells, antibody at 1 ug/ml
# T3 construct: whole, on cells; Target of the gemtuzumab arm; also called CD33 expressing cells
# T3 sequence (P20138 18-364 limits assumed): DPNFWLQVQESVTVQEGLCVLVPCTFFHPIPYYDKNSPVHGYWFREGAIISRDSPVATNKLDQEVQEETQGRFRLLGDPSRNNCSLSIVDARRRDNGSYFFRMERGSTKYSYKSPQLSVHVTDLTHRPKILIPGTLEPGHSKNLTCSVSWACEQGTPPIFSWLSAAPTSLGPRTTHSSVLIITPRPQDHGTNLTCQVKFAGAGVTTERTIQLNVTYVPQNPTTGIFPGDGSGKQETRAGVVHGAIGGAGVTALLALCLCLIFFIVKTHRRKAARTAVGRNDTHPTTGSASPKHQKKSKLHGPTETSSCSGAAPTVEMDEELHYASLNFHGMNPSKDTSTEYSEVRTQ
# CD33 on KILR-HL60 cells [6] = molecular target: T3, CD33 on KILR-HL60 cells; assay: flow cytometry on KILR-HL60 (CD33 expressing) cells, antibody at 10 ug/ml
# [7] = molecular target: T4, CD3 on Jurkat wild-type cells (UniProt P07766 23-207; P04234 22-171; P09693 23-182); assay: flow cytometry on Jurkat WT cells, antibody at 10 ug/ml
# T4 construct: whole, on cells; also called Jurkat WT
# T4 sequence (P07766 23-207, chain 1 of 3): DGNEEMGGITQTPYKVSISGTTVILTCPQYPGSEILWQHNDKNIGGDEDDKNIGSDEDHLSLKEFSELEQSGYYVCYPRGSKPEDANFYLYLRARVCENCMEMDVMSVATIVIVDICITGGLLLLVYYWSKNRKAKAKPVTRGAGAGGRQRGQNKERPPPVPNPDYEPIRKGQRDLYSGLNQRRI
# T4 sequence (P04234 22-171, chain 2 of 3): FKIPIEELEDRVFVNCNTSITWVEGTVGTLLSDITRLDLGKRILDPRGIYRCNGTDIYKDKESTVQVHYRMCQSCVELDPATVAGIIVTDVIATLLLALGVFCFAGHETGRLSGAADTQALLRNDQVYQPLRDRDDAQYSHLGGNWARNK
# T4 sequence (P09693 23-182, chain 3 of 3): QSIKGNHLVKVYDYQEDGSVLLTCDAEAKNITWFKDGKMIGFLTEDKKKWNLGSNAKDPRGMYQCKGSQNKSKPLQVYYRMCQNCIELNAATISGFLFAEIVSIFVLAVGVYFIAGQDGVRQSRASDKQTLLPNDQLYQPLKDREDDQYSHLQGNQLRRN
# [8] = molecular target: T4, CD3 on Jurkat wild-type cells; assay: flow cytometry on Jurkat WT cells, antibody at 1 ug/ml
# T1 sequence (P07766 23-126, chain 1 of 2): as the sequence (P07766 23-126, stated change not applied, chain 1 of 2) above
# T1 sequence (P09693 23-116, chain 2 of 2): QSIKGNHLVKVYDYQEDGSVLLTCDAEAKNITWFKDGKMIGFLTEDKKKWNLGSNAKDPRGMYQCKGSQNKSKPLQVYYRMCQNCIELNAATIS
Binder,Kd [1],Response [1],koff [1],kon [1],flow cytometry signal (CD33 on KILR-HL60 cells [5]),flow cytometry signal (CD33 on KILR-HL60 cells [6]),flow cytometry signal [7],flow cytometry signal [8],other results
"ABL-CD3-9 (antibody, V domains shown, Chimeric hybridoma mAb: human V, CH1, upper hinge; mouse middle hinge, CH2, CH3) VH: EVQLVDSGGGLVKPGGSLRLSCAASGFTFSSYSMNWVRQAPGKGLEWVSSVNSRGSYIYYADSVKGRFTISRDNAKNSLYLQMNSLRADDTAVYYCARDRRELLLDYWGQGTLVTVSS VL: SYELTQPPSVSVSPGQTARITCSGDALPKKYAYWYQQKSGQAPVLVIYEDSKRPSGIPERFSGSSSGTMATLTISGAQVEDEADYYCYSTDSSGNHCWVFGGGTKLTVL",110 nM,0.1,0.114 s⁻¹,1.04e+06 M⁻¹ s⁻¹,,,,,Kd [2]: 70.8 nM; Response [2]: 0.34; koff [2]: 0.0393 s⁻¹; kon [2]: 555000 M⁻¹ s⁻¹
"ABL-CD3-35 (antibody, V domains shown, Chimeric hybridoma mAb: human V, CH1, upper hinge; mouse middle hinge, CH2, CH3) VH: EVQLVESGGGLVKPGGSLRLSCAASGFTFSSYSMNWVRQAPGKGLEWVSSVNSRGSYIYYADSVKGRFTISRDNAKDSLYLQMNSLRADDTAVYYCARDRRELLLDYWGQGTLVTVSS VL: SYELTQPPSVSVSPGQTARITCSGDALPKKYAYWYQQKSGQAPVLVIYEDSKRPSGIPERFSGSSSGTMATLTISGAQVEDEADYYCYSTDSSGNHCWVFGGGTKLTVL",14.2 nM,0.12,0.0144 s⁻¹,1.02e+06 M⁻¹ s⁻¹,,,,,Kd [3]: 54.7 nM; Response [3]: 0.36; koff [3]: 0.0271 s⁻¹; kon [3]: 495000 M⁻¹ s⁻¹
"ABL-CD3-45 (antibody, V domains shown, Chimeric hybridoma mAb: human V, CH1, upper hinge; mouse middle hinge, CH2, CH3) VH: EVQLVESGGGLVQPGGSLRLSCAASGFTFSSYWMSWVRQAPGKGLEWVANIKEDGSEKYYVDSVKGRFTISRDNAKNSLYLQMNSLRAEDTAVYYCARERRTGYLDYWGQGTLVTVSS VL: not shown",15.8 nM,0.03,0.00375 s⁻¹,237000 M⁻¹ s⁻¹,,,,,Kd [4]: 13.7 nM; Response [4]: 0.2; koff [4]: 0.000475 s⁻¹; kon [4]: 34600 M⁻¹ s⁻¹
"CD3 × CD33-BspAb66 (bispecific antibody, human IgG1, kappa, also called CD3δε-specific control antibody scFv-Fc knob/TM x gemtuzumab) scFv: EVQLVESGGGLVQPGRSLRLSCAASGFTFDDYAMHWVRQAPGKGLEWVSGISWNSGSIGYADSVKGRFTISRDNAKNSLYLQMNSLRAEDTALYYCAKDSRGYGDYRLGGAYWGQGTLVTVSSGGGGSGGGGSGGGGSGGGGSEIVMTQSPATLSVSPGERATLSCRASQSVSSNLAWYQQKPGQAPRLLIYGASTRATGIPARFSGSGSGTEFTLTISSLQSEDFAVYYCQQYNNWPWTFGQGTKVEIKTSGPGGPDKTHTCPPCPAPEFEGGPSVFLFPPKPKDTLMISRTPEVTCVVVDVSHEDPEVKFNWYVDGVEVHNAKTKPREEQYNSTYRVVSVLTVLHQDWLNGKEYKCKVSNKALPASIEKTISKAKGQPREPQVYTLPPCREEMTKNQVSLWCLVKGFYPSDIAVEWESNGQPENNYKTTPPVLDSDGSFFLYSKLTVDKSRWQQGNVFSCSVMHEALHNHYTQKSLSLSPGK heavy: EVQLVQSGAEVKKPGSSVKVSCKASGYTITDSNIHWVRQAPGQSLEWIGYIYPYNGGTDYNQKFKNRATLTVDNPTNTAYMELSSLRSEDTAFYYCVNGNPWLAYWGQGTLVTVSSASTKGPSVFPLAPSSKSTSGGTAALGCLVKDYFPEPVTVSWNSGALTSGVHTFPAVLQSSGLYSLSSVVTVPSSSLGTQTYICNVNHKPSNTKVDKRVEPKSCDKTHTCPPCPAPEFEGGPSVFLFPPKPKDTLMISRTPEVTCVVVDVSHEDPEVKFNWYVDGVEVHNAKTKPREEQYNSTYRVVSVLTVLHQDWLNGKEYKCKVSNKALPASIEKTISKAKGQPREPQVCTLPPSREEMTKNQVSLSCAVKGFYPSDIAVEWESNGQPENNYKTTPPVLDSDGSFFLVSKLTVDKSRWQQGNVFSCSVMHEALHNRFTQKSLSLSPGK light: DIQLTQSPSTLSASVGDRVTITCRASESLDNYGIRFLTWFQQKPGKAPKLLMYAASNQGSGVPSRFSGSGSGTEFTLTISSLQPDDFATYYCQQTKEVPWSFGQGTKVEVKRTVAAPSVFIFPPSDEQLKSGTASVVCLLNNFYPREAKVQWKVDNALQSGNSQESVTEQDSKDSTYSLSSTLTLSKADYEKHKVYACEVTHQGLSSPVTKSFNRGEC",,,,,569000,499000,23100,6660,
Control Humanized anti-CD3 (high affinity) scFv-Fc knob/TM x gemtuzumab (bispecific antibody) scFv: EVQLVESGGGLVQPGGSLRLSCAASGFTFSTYAMNWVRQAPGKGLEWVGRIRSKYNNYATYYADSVKGRFTISRDDSKNTLYLQMNSLRAEDTAVYYCVRHGNFGDSYVSWFAYWGQGTLVTVSSGKPGSGKPGSGKPGSGKPGSQAVVTQEPSLTVSPGGTVTLTCGSSTGAVTTSNYANWVQQKPGKSPRGLIGGTNKRAPGVPARFSGSLLGGKAALTISGAQPEDEADYYCALWYSNHWVFGGGTKLTVLGGGGSDKTHTCPPCPAPEFEGGPSVFLFPPKPKDTLMISRTPEVTCVVVDVSHEDPEVKFNWYVDGVEVHNAKTKPREEQYNSTYRVVSVLTVLHQDWLNGKEYKCKVSNKALPASIEKTISKAKGQPREPQVYTLPPCREEMTKNQVSLWCLVKGFYPSDIAVEWESNGQPENNYKTTPPVLDSDGSFFLYSKLTVDKSRWQQGNVFSCSVMHEALHNHYTQKSLSLSPGK heavy: EVQLVQSGAEVKKPGSSVKVSCKASGYTITDSNIHWVRQAPGQSLEWIGYIYPYNGGTDYNQKFKNRATLTVDNPTNTAYMELSSLRSEDTAFYYCVNGNPWLAYWGQGTLVTVSSASTKGPSVFPLAPSSKSTSGGTAALGCLVKDYFPEPVTVSWNSGALTSGVHTFPAVLQSSGLYSLSSVVTVPSSSLGTQTYICNVNHKPSNTKVDKRVEPKSCDKTHTCPPCPAPEFEGGPSVFLFPPKPKDTLMISRTPEVTCVVVDVSHEDPEVKFNWYVDGVEVHNAKTKPREEQYNSTYRVVSVLTVLHQDWLNGKEYKCKVSNKALPASIEKTISKAKGQPREPQVCTLPPSREEMTKNQVSLSCAVKGFYPSDIAVEWESNGQPENNYKTTPPVLDSDGSFFLVSKLTVDKSRWQQGNVFSCSVMHEALHNRFTQKSLSLSPGK light: DIQLTQSPSTLSASVGDRVTITCRASESLDNYGIRFLTWFQQKPGKAPKLLMYAASNQGSGVPSRFSGSGSGTEFTLTISSLQPDDFATYYCQQTKEVPWSFGQGTKVEVKRTVAAPSVFIFPPSDEQLKSGTASVVCLLNNFYPREAKVQWKVDNALQSGNSQESVTEQDSKDSTYSLSSTLTLSKADYEKHKVYACEVTHQGLSSPVTKSFNRGEC,,,,,544000,648000,38400,37900,
Control Humanized anti-CD3 (low affinity) scFv-Fc knob/TM x gemtuzumab (bispecific antibody) scFv: EVQLVESGGGLVQPGGSLRLSCAASGFTFSTYAMNWVRQAPGKGLEWVGRIRSKYNNYATYYADSVKGRFTISRDDSKNTLYLQMNSLRAEDTAVYYCVRHGNFGDSYVSWFDYWGQGTLVTVSSGKPGSGKPGSGKPGSGKPGSQAVVTQEPSLTVSPGGTVTLTCGSSTGAVTTSNYANWVQQKPGKSPRGLIGGTNKRAPGVPARFSGSLLGGKAALTISGAQPEDEADYYCALWYSNHWVFGGGTKLTVLGGGGSDKTHTCPPCPAPEFEGGPSVFLFPPKPKDTLMISRTPEVTCVVVDVSHEDPEVKFNWYVDGVEVHNAKTKPREEQYNSTYRVVSVLTVLHQDWLNGKEYKCKVSNKALPASIEKTISKAKGQPREPQVYTLPPCREEMTKNQVSLWCLVKGFYPSDIAVEWESNGQPENNYKTTPPVLDSDGSFFLYSKLTVDKSRWQQGNVFSCSVMHEALHNHYTQKSLSLSPGK heavy: EVQLVQSGAEVKKPGSSVKVSCKASGYTITDSNIHWVRQAPGQSLEWIGYIYPYNGGTDYNQKFKNRATLTVDNPTNTAYMELSSLRSEDTAFYYCVNGNPWLAYWGQGTLVTVSSASTKGPSVFPLAPSSKSTSGGTAALGCLVKDYFPEPVTVSWNSGALTSGVHTFPAVLQSSGLYSLSSVVTVPSSSLGTQTYICNVNHKPSNTKVDKRVEPKSCDKTHTCPPCPAPEFEGGPSVFLFPPKPKDTLMISRTPEVTCVVVDVSHEDPEVKFNWYVDGVEVHNAKTKPREEQYNSTYRVVSVLTVLHQDWLNGKEYKCKVSNKALPASIEKTISKAKGQPREPQVCTLPPSREEMTKNQVSLSCAVKGFYPSDIAVEWESNGQPENNYKTTPPVLDSDGSFFLVSKLTVDKSRWQQGNVFSCSVMHEALHNRFTQKSLSLSPGK light: DIQLTQSPSTLSASVGDRVTITCRASESLDNYGIRFLTWFQQKPGKAPKLLMYAASNQGSGVPSRFSGSGSGTEFTLTISSLQPDDFATYYCQQTKEVPWSFGQGTKVEVKRTVAAPSVFIFPPSDEQLKSGTASVVCLLNNFYPREAKVQWKVDNALQSGNSQESVTEQDSKDSTYSLSSTLTLSKADYEKHKVYACEVTHQGLSSPVTKSFNRGEC,,,,,535000,623000,3230,2620,
"Gemtuzumab (antibody, V domains shown, the heavy chain entry carries the hole, H435R/Y436F and L234F/L235E/P331S changes, which the control may not have; also called anti-CD33 control antibody) VH: EVQLVQSGAEVKKPGSSVKVSCKASGYTITDSNIHWVRQAPGQSLEWIGYIYPYNGGTDYNQKFKNRATLTVDNPTNTAYMELSSLRSEDTAFYYCVNGNPWLAYWGQGTLVTVSS VL: DIQLTQSPSTLSASVGDRVTITCRASESLDNYGIRFLTWFQQKPGKAPKLLMYAASNQGSGVPSRFSGSGSGTEFTLTISSLQPDDFATYYCQQTKEVPWSFGQGTKVEVKR",,,,,321000,351000,2570,2570,
